Laboratory results as given in doi:10.1101/2022.11.09.514853 (bioRxiv, 2022).

Biological target: the molecule itself
Assay: cryo-EM structure

B1: human GluN2D, C-terminal domain truncated (M1-P879), Strep-tag II (receptor, UniProt O15399 28-879, looked up)
chain: FPEEAPGPGGAGGPGGGLGGARPLNVALVFSGPAYAAEAARLGPAVAAAVRSPGLDVRPVALVLNGSDPRSLVLQLCDLLSGLRVHGVVFEDDSRAPAVAPILDFLSAQTSLPIVAVHGGAALVLTPKEKGSTFLQLGSSTEQQLQVIFEVLEEYDWTSFVAVTTRAPGHRAFLSYIEVLTDGSLVGWEHRGALTLDPGAGEAVLSAQLRSVSAQIRLLFCAREEAEPVFRAAEEAGLTGSGYVWFMVGPQLAGGGGSGAPGEPPLLPGGAPLPAGLFAVRSAGWRDDLARRVAAGVAVVARGAQALLRDYGFLPELGHDCRAQNRTHRGESLHRYFMNITWDNRDYSFNEDGFLVNPSLVVISLTRDRTWEVVGSWEQQTLRLKYPLWSRYGRFLQPVDDTQHLTVATLEERPFVIVEPADPISGTCIRDSVPCRSQLNRTHSPPPDAPRPEKRCCKGFCIDILKRLAHTIGFSYDLYLVTNGKHGKKIDGVWNGMIGEVFYQRADMAIGSLTINEERSEIVDFSVPFVETGISVMVARSNGTVSPSAFLEPYSPAVWVMMFVMCLTVVAVTVFIFEYLSPVGYNRSLATGKRPGGSTFTIGKSIWLLWALVFNNSVPVENPRGTTSKIMVLVWAFFAVIFLASYTANLAAFMIQEEYVDTVSGLSDRKFQRPQEQYPPLKFGTVPNGSTEKNIRSNYPDMHSYMVRYNQPRVEEALTQLKAGKLDAFIYDAAVLNYMARKDEGCKLVTIGSGKVFATTGYGIALHKGSRWKRPIDLALLQFLGDDEIEMLERLWLSGICHNDKIEVMSSKLDIDNMAGVFYMLLVAMGLSLLVFAWEHLVYWRLRHCLGP
Question: Does B1 bind?
Answer: binds
